# From patent publication US20220195455A1, “DELIVERY OF CRISPR/MCAS9 THROUGH EXTRACELLULAR VESICLES FOR GENOME EDITING” (University of Georgia Research Foundation, Inc., priority 2019, published 2022)
# B1: full length NMT1 protein (Homo sapiens) (protein)
# chain: MADESETAVKPPAPPLPQMMEGNGNGHEHCSDCENEEDNSYNRGGLSPANDTGAKKKKKKQKKKKEKGSETDSAQDQPVKMNSLPAERIQEIQKAIELFSVGQGPAKTMEEASKRSYQFWDTQPVPKLGEVVNTHGPVEPDKDNIRQEPYTLPQGFTWDALDLGDRGVLKELYTLLNENYVEDDDNMFRFDYSPEFLLWALRPPGWLPQWHCGVRVVSSRKLVGFISAIPANIHIYDTEKKMVEINFLCVHKKLRSKRVAPVLIREITRRVHLEGIFQAVYTAGVVLPKPVGTCRYWHRSLNPRKLIEVKFSHLSRNMTMQRTMKLYRLPETPKTAGLRPMETKDIPVVHQLLTRYLKQFHLTPVMSQEEVEHWFYPQENIIDTFVVENANGEVTDFLSFYTLPSTIMNHPTHKSLKAAYSFYNVHTQTPLLDLMSDALVLAKMKGFDVFNALDLMENKTFLEKLKFGIGDGNLQYYLYNWKCPSMGAEKVGLVLQ
# notes: Km and Vmax catalyzed by full length NMT1 protein were calculated
# Legend:
# Assay in all cases: NMT1 activity assay (CoA release, fluorescence);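 also: released CoA from NMT1-catalysed myristoylation of octapeptide substrates detected by fluorescence after reaction with a maleimide coumarin dye (excitation 390 nm, emission 479 nm), triplicate points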
# Assay type in all cases: biochemical
# Details in all cases: other: octapeptide as NMT1 substrate; full length NMT1
# [1] = substrate: N=C(N)NCCC[C@H](NC(=O)[C@H](Cc1ccc(O)cc1)NC(=O)[C@H](Cc1c[nH]cn1)NC(=O)[C@H](CCCNC(=N)N)NC(=O)[C@H](CO)NC(=O)[C@H](CCC(=O)O)NC(=O)[C@H](CCCNC(=N)N)NC(=O)CN)C(=O)O
# Description: (§1) The amount of the released CoA were reacted with 7-diethylamino-3-(4′-maleimidylphenyl)-4-methylcoumarin. The assay was performed in 96-well black microplates. The produced fluorescence intensity was measured by Flex Station 3, and detected by microplate reader (excitation at 390 nm; emission at 479 nm).
# (§2) The amount of the released CoA were reacted with 7-diethylamino-3-(4′-maleimidylphenyl)-4-methylcoumarin. The assay was performed in 96-well black microplates. The produced fluorescence intensity was measured by Flex Station 3, and detected by microplate reader (excitation at 390 nm; emission at 479 nm). To measure the Km and Vmax of NMT1 which catalyzed various octapeptides substrates derived from various proteins, twenty-five octapeptides were synthesized by GenScript. […] Each data point has three repeats.
# (§3) Km and Vmax catalyzed by full length NMT1 protein were calculated.
# [2] = substrate: C[C@H](NC(=O)[C@H](CCCCN)NC(=O)[C@H](CO)NC(=O)[C@H](CO)NC(=O)[C@H](CCCCN)NC(=O)[C@H](CCCNC(=N)N)NC(=O)CN)C(=O)N[C@@H](CCCCN)C(=O)O
# Description: as §1, §2, §3
# [3] = substrate: CC(C)C[C@H](NC(=O)CN)C(=O)N[C@@H](CC(C)C)C(=O)N[C@@H](CC(=O)O)C(=O)N[C@@H](CCCNC(=N)N)C(=O)N[C@@H](CC(C)C)C(=O)N[C@@H](CO)C(=O)N[C@H](C(=O)O)C(C)C
# Description: as §1, §2, §3
# [4] = substrate: CC(C)[C@H](NC(=O)[C@H](CCCNC(=N)N)NC(=O)[C@H](CO)NC(=O)CN)C(=O)N[C@@H](CO)C(=O)N[C@@H](CCCNC(=N)N)C(=O)N[C@@H](CCC(=O)O)C(=O)N[C@@H](CC(=O)O)C(=O)O
# Description: as §1, §2, §3
# [5] = substrate: CC[C@H](C)[C@H](NC(=O)[C@H](CCCCN)NC(=O)[C@H](CO)NC(=O)[C@H](CC(C)C)NC(=O)[C@@H](NC(=O)[C@H](CCCCN)NC(=O)CN)C(C)C)C(=O)N[C@@H](Cc1ccccc1)C(=O)O
# Description: as §1, §2, §3
# [6] = substrate: CC(C)C[C@H](NC(=O)[C@H](CS)NC(=O)[C@H](CC(N)=O)NC(=O)CN)C(=O)N[C@@H](CCCCN)C(=O)N[C@@H](CO)C(=O)N1CCC[C@H]1C(=O)N[C@H](C(=O)O)[C@@H](C)O
# Description: as §1, §2, §3
# [7] = substrate: C[C@H](N)C(=O)N[C@@H](CO)C(=O)N[C@@H](CC(N)=O)C(=O)N[C@@H](CCCCN)C(=O)N[C@@H](CO)C(=O)N[C@@H](CCCCN)C(=O)N1CCC[C@H]1C(=O)N[C@@H](CCCCN)C(=O)O
# Description: as §1, §2, §3
# [8] = substrate: C[C@H](NC(=O)[C@@H](NC(=O)[C@H](CCCCN)NC(=O)[C@H](CO)NC(=O)[C@H](Cc1ccccc1)NC(=O)[C@H](CCC(N)=O)NC(=O)[C@H](C)NC(=O)CN)[C@@H](C)O)C(=O)O
# Description: as §1, §2, §3
# [9] = substrate: CC[C@H](C)[C@H](NC(=O)[C@H](CS)NC(=O)CN)C(=O)N[C@@H](CCCCN)C(=O)N[C@@H](CO)C(=O)N[C@@H](CCCCN)C(=O)N[C@@H](CCC(=O)O)C(=O)N[C@@H](CC(N)=O)C(=O)O
# Description: as §1, §2, §3
# [10] = substrate: CSCC[C@H](NC(=O)[C@@H](NC(=O)[C@H](CCC(=O)O)NC(=O)CN)[C@@H](C)O)C(=O)N[C@@H](CO)C(=O)N[C@@H](CCCCN)C(=O)N[C@@H](CCCNC(=N)N)C(=O)N[C@@H](CC(C)C)C(=O)O
# Description: as §1, §2, §3
# [11] = substrate: NCCCC[C@H](NC(=O)[C@@H]1CCCN1C(=O)[C@H](CCCCN)NC(=O)[C@H](CO)NC(=O)[C@H](CCCCN)NC(=O)[C@H](CC(N)=O)NC(=O)[C@H](CO)NC(=O)CN)C(=O)O
# Description: as §1, §2, §3
# [12] = substrate: CC[C@H](C)[C@H](NC(=O)CNC(=O)[C@H](CCCNC(=N)N)NC(=O)[C@@H](NC(=O)[C@@H](NC(=O)[C@H](CC(C)C)NC(=O)[C@H](C)NC(=O)CN)C(C)C)[C@@H](C)CC)C(=O)O
# Description: as §1, §2, §3
# [13] = substrate: CC(C)C[C@H](NC(=O)[C@H](C)NC(=O)[C@H](CO)NC(=O)[C@H](CC(N)=O)NC(=O)[C@H](CCC(=O)O)NC(=O)[C@H](CO)NC(=O)CN)C(=O)N[C@@H](CCCCN)C(=O)O
# Description: as §1, §2, §3
# [14] = substrate: C[C@H](NC(=O)[C@H](CC(N)=O)NC(=O)CN)C(=O)N[C@@H](CCC(N)=O)C(=O)N[C@@H](CCC(=O)O)C(=O)N[C@@H](CCCNC(=N)N)C(=O)N1CCC[C@H]1C(=O)N[C@@H](CO)C(=O)O
# Description: as §1, §2, §3
# [15] = substrate: CC[C@H](C)[C@H](NC(=O)[C@H](CS)NC(=O)CN)C(=O)N[C@@H](CCCCN)C(=O)N[C@@H](CO)C(=O)N[C@@H](CCCCN)C(=O)NCC(=O)N[C@@H](CCCCN)C(=O)O
# Description: as §1, §2, §3
# [16] = substrate: CC(C)C[C@H](NC(=O)CNC(=O)CN)C(=O)N[C@@H](Cc1ccccc1)C(=O)N[C@@H](CO)C(=O)N[C@@H](CCCNC(=N)N)C(=O)N[C@@H](Cc1c[nH]c2ccccc12)C(=O)N[C@@H](CCCNC(=N)N)C(=O)O
# Description: as §1, §2, §3
# [17] = substrate: N=C(N)NCCC[C@H](NC(=O)[C@H](CS)NC(=O)CN)C(=O)N[C@@H](CCC(N)=O)C(=O)N[C@@H](CO)C(=O)N[C@@H](CO)C(=O)N[C@@H](CCC(=O)O)C(=O)N[C@@H](CCC(=O)O)C(=O)O
# Description: as §1, §2, §3
# [18] = substrate: CC[C@H](C)[C@H](NC(=O)[C@@H](NC(=O)[C@H](CC(C)C)NC(=O)[C@H](CC(C)C)NC(=O)CN)[C@@H](C)O)C(=O)N[C@@H](CC(C)C)C(=O)N[C@@H](CCCCN)C(=O)N[C@@H](CCCCN)C(=O)O
# Description: as §1, §2, §3
# [19] = substrate: C[C@H](NC(=O)[C@H](CCCCN)NC(=O)[C@H](CO)NC(=O)[C@H](CO)NC(=O)[C@H](CCC(N)=O)NC(=O)[C@H](CO)NC(=O)CN)C(=O)N1CCC[C@H]1C(=O)O
# Description: as §1, §2, §3
# [20] = substrate: CC(C)[C@H](NC(=O)[C@H](CS)NC(=O)CN)C(=O)N[C@@H](CCC(N)=O)C(=O)N[C@@H](CS)C(=O)N[C@@H](CCCCN)C(=O)N[C@@H](CC(=O)O)C(=O)N[C@@H](CCCCN)C(=O)O
# Description: as §1, §2, §3
# [21] = substrate: CC(C)C[C@H](NC(=O)[C@H](Cc1c[nH]cn1)NC(=O)[C@H](C)NC(=O)CN)C(=O)N[C@H](C(=O)N[C@@H](CCCNC(=N)N)C(=O)N[C@@H](CCCNC(=N)N)C(=O)N[C@@H](Cc1ccc(O)cc1)C(=O)O)C(C)C
# Description: as §1, §2, §3
# [22] = substrate: C[C@H](NC(=O)[C@@H]1CCCN1C(=O)CNC(=O)[C@H](CO)NC(=O)[C@H](CCC(N)=O)NC(=O)[C@H](CCCCN)NC(=O)[C@H](C)NC(=O)CN)C(=O)O
# Description: as §1, §2, §3
# [23] = substrate: N=C(N)NCCC[C@H](NC(=O)[C@H](CCCNC(=N)N)NC(=O)[C@H](CCCCN)NC(=O)[C@H](CO)NC(=O)[C@H](Cc1ccccc1)NC(=O)[C@H](Cc1ccccc1)NC(=O)[C@H](CS)NC(=O)CN)C(=O)O
# Description: as §1, §2, §3
# [24] = substrate: CC(C)C[C@H](NC(=O)[C@H](CCC(N)=O)NC(=O)[C@H](CCC(N)=O)NC(=O)[C@H](CO)NC(=O)[C@H](C)NC(=O)[C@H](CCCCN)NC(=O)[C@H](CCC(N)=O)NC(=O)CN)C(=O)O
# Description: as §1, §2, §3
protein,measurement,setting,value
B1,Vmax,[1],2 µM/min
same,Km,[2],1.2 µM
same,Vmax,[2],1.8 µM/min
same,Vmax,[3],1.8 µM/min
same,Km,[4],79.2 µM
same,Vmax,[4],12.9 µM/min
same,Km,[5],4.4 µM
same,Vmax,[5],13.6 µM/min
same,Km,[6],16.7 µM
same,Vmax,[6],61.1 µM/min
same,Vmax,[7],1 µM/min
same,Km,[8],38.4 µM
same,Vmax,[8],6.4 µM/min
same,Km,[9],14.4 µM
same,Vmax,[9],61 µM/min
same,Km,[10],13.0 µM
same,Vmax,[10],5.3 µM/min
same,Km,[11],14.3 µM
same,Vmax,[11],25.8 µM/min
same,Km,[12],0.5 µM
same,Vmax,[12],1.2 µM/min
same,Km,[13],0.8 µM
same,Vmax,[13],1.7 µM/min
same,Km,[14],1.4 µM
same,Vmax,[14],2 µM/min
same,Km,[15],22.5 µM
same,Vmax,[15],64.7 µM/min
same,Km,[16],10.3 µM
same,Vmax,[16],21.9 µM/min
same,Km,[17],15.7 µM
same,Vmax,[17],64.4 µM/min
same,Km,[18],0.4 µM
same,Vmax,[18],1.2 µM/min
same,Km,[19],11.7 µM
same,Vmax,[19],6.6 µM/min
same,Km,[20],5.2 µM
same,Vmax,[20],54.9 µM/min
same,Km,[21],16.4 µM
same,Vmax,[21],2.8 µM/min
same,Km,[22],2.0 µM
same,Vmax,[22],1.6 µM/min
same,Km,[23],13.6 µM
same,Vmax,[23],60.8 µM/min
same,Km,[24],15.7 µM
same,Vmax,[24],3.4 µM/min
